The chains are these.
B5: INTS3CTD (C-terminal domain of INTS3, residues 572-978) (other)
chain: DQLDESLRDKVLQLQKGSDTEAQCEVMQEIVDQVLEEDFDSEQLSVLASCLQELFKAHFRGEVLPEEITEESLEESVGKPLYLIFRNLCQMQEDNSSFSLLLDLLSELYQKQPKIGYHLLYYLRASKAAAGKMNLYESFAQATQLGDLHTCLMMDMKACQEDDVRLLCHLTPSIYTEFPDETLRSGELLNMIVAVIDSAQLQELVCHVMMGNLVMFRKDSVLNILIQSLDWETFEQYCAWQLFLAHNIPLETIIPILQHLKYKEHPEALSCLLLQLRREKPSEEMVKMVLSRPCHPDDQFTTSILRHWCMKHDELLAEHIKSLLIKNNSLPRKRQSLRSSSSKLAQLTLEQILEHLDNLRLNLTNTKQNFFSQTPILQALQHVQASCDEAHKMKFSDLFSLAEEYED
notes: also called INTS3CTD dimer

For data set [1], the target named is B5. Kind of data set: purification of the complex, size-exclusion chromatography (FIG. 8B). (In gel filtration, larger molecules generally elute earlier.)
Data set [2] deals with T1, His-INTS3-Strep (human, UniProt Q68E01 2-1043).
T1 construct: also called INTS3 (co-IP construct)
As to the kind of experiment: co-IP in transfected HEK-293T cells (FIG. 6C). The protocol:
(§1) After 48 hours, cells were lysed in IP buffer containing 50 mM Tris-HCl pH 7.5, 150 mM NaCl, 0.1% Triton-X100, 1 mM EDTA and 1×Roche protease inhibitor. The supernatants were incubated overnight with mouse anti-His monoclonal antibody (Proteintech #66005-1-Ig), or rabbit anti-FLAG polyclonal antibody (Proteintech #20543-1-AP).
(§2) Then, protein A/G agarose beads (Millipore, #[…]02) were added and rotated for 2 more hours. The immunoprecipitated complexes were subjected to SDS-PAGE, followed by Western blot and/or MS analyses.

For data set [3], the target named is T1, His-INTS3-Strep. Kind of data set: co-IP. On the procedure: as §1, §2
Data set [4] concerns the molecule itself. Kind of data set: homodimerisation of two INTS3CTD protomers; crystal structure (2.3 Å) and calibrated size-exclusion chromatography.
In data set [5] the target is B5. Kind of data set: ITC (MicroCal iTC200, 16 °C, single-site model, two independent experiments). On the procedure: The equilibrium dissociation constant of the SAGE1I3BD-INTS3CTD interaction was determined using a MicroCal iTC200 calorimeter (Malvern). The binding enthalpy was measured at 16° C. in 25 mM Tris-HCl pH 8.0, 150 mM NaCl and 5 mM MgCl2. Two independent experiments were performed. ITC data were subsequently analyzed and fitted using Origin 7 software (OriginLab).
All statistical tests of experimental results were performed using the GraphPad Prism 7 unless noted. The statistical significance was calculated via unpaired two-tailed Student's t test. The dissociation constants (Kd) in ITC experiments were calculated using the Origin 7 software as mean±standard error from two independent experiments with a single site-specific binding model. The statistical analysis of in vivo experiments data was performed using nonparametric Mann-Whitney test. Results were represented as mean±standard deviation unless noted and p<0.05 was considered statistically significant.

T1 sequence (Q68E01 2-1043): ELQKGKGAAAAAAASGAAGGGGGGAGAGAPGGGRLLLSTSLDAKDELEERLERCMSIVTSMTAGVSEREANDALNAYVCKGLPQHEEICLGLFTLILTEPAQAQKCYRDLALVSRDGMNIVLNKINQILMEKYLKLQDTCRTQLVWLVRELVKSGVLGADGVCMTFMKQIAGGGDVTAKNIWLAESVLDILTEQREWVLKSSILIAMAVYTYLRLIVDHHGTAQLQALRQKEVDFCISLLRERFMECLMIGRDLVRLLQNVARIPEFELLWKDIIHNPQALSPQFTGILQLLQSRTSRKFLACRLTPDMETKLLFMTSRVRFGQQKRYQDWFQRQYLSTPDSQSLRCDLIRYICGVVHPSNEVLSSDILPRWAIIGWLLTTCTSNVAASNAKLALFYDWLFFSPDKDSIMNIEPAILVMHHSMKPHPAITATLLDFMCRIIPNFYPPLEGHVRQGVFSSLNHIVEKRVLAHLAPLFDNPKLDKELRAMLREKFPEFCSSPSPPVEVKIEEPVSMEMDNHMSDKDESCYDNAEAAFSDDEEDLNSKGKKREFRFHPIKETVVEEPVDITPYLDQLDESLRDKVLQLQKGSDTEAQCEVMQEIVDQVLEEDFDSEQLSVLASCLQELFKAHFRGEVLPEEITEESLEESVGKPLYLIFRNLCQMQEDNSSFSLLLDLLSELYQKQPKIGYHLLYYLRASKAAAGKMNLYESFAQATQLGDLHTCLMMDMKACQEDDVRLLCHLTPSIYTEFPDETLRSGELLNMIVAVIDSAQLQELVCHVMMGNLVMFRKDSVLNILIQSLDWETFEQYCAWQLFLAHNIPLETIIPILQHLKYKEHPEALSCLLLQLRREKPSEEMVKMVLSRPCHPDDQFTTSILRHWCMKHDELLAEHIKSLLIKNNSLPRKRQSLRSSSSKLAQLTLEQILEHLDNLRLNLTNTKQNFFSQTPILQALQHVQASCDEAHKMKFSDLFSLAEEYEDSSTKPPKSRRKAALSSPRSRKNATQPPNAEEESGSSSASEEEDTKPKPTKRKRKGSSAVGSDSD

B1: INTS6I3BD (INTS3-binding domain of INTS6, residues 803-887) (other)
chain: RSHEEVNTELKAQIMKEIRKPGRKYERIFTLLKHVQGSLQTRLIFLQNVIKEASRFKKRMLIEQLENFLDEIHRRANQINHINSN
notes: It was cloned in pGEX-6P-1 and purified as the INTS3CTD-INTS6I3BD complex; also called INTS6803-887; small domain at the C-terminus of INTS6
Consider B1, for which the binding result in data set [1] was “binds”.

B2: His-SAGE1-Flag (WT SAGE1) (other, not shown: small tags and cut ends)
chain: MQASPLQTSQPTPPEELHAAAYVFTNDGQQMRSDEVNLVATGHQSKKKHSRKSKRHSSSKRRKSMSSWLDKQEDAAVTHSICEERINNGQPVADNVLSTAPPWPDATIAHNIREERMENGQSRTDKVLSTAPPQLVHMAAAGIPSMSTRDLHSTVTHNIREERMENGQPQPDNVLSTGPTGLINMAATPIPAMSARDLYATVTHNVCEQKMENVQPAPDNVLLTLRPRRINMTDTGISPMSTRDPYATITYNVPEEKMEKGQPQPDNILSTASTGLINVAGAGTPAISTNGLYSTVPHNVCEEKMENDQPQPNNVLSTVQPVIIYLTATGIPGMNTRDQYATITHNVCEERVVNNQPLPSNALSTVLPGLAYLATADMPAMSTRDQHATIIHNLREEKKDNSQPTPDNVLSAVTPELINLAGAGIPPMSTRDQYATVNHHVHEARMENGQRKQDNVLSNVLSGLINMAGASIPAMSSRDLYATITHSVREEKMESGKPQTDKVISNDAPQLGHMAAGGIPSMSTKDLYATVTQNVHEERMENNQPQPSYDLSTVLPGLTYLTVAGIPAMSTRDQYATVTHNVHEEKIKNGQAASDNVFSTVPPAFINMAATGVSSMSTRDQYAAVTHNIREEKINNSQPAPGNILSTAPPWLRHMAAAGISSTITRDLYVTATHSVHEEKMTNGQQAPDNSLSTVPPGCINLSGAGISCRSTRDLYATVIHDIQEEEMENDQTPPDGFLSNSDSPELINMTGHCMPPNALDSFSHDFTSLSKDELLYKPDSNEFAVGTKNYSVSAGDPPVTVMSLVETVPNTPQISPAMAKKINDDIKYQLMKEVRRFGQNYERIFILLEEVQGSMKVKRQFVEFTIKEAARFKKVVLIQQLEKALKEIDSHCHLRKVKHMRKR
notes: also called wild type SAGE1
Turning to B2, the binding result with His-INTS3-Strep [2] is reported as “binds”.

B3: SAGE1mut (R872A, F873A, K874A, M832A, F838A and Q840A) (other, not shown: small tags and cut ends)
chain: MQASPLQTSQPTPPEELHAAAYVFTNDGQQMRSDEVNLVATGHQSKKKHSRKSKRHSSSKRRKSMSSWLDKQEDAAVTHSICEERINNGQPVADNVLSTAPPWPDATIAHNIREERMENGQSRTDKVLSTAPPQLVHMAAAGIPSMSTRDLHSTVTHNIREERMENGQPQPDNVLSTGPTGLINMAATPIPAMSARDLYATVTHNVCEQKMENVQPAPDNVLLTLRPRRINMTDTGISPMSTRDPYATITYNVPEEKMEKGQPQPDNILSTASTGLINVAGAGTPAISTNGLYSTVPHNVCEEKMENDQPQPNNVLSTVQPVIIYLTATGIPGMNTRDQYATITHNVCEERVVNNQPLPSNALSTVLPGLAYLATADMPAMSTRDQHATIIHNLREEKKDNSQPTPDNVLSAVTPELINLAGAGIPPMSTRDQYATVNHHVHEARMENGQRKQDNVLSNVLSGLINMAGASIPAMSSRDLYATITHSVREEKMESGKPQTDKVISNDAPQLGHMAAGGIPSMSTKDLYATVTQNVHEERMENNQPQPSYDLSTVLPGLTYLTVAGIPAMSTRDQYATVTHNVHEEKIKNGQAASDNVFSTVPPAFINMAATGVSSMSTRDQYAAVTHNIREEKINNSQPAPGNILSTAPPWLRHMAAAGISSTITRDLYVTATHSVHEEKMTNGQQAPDNSLSTVPPGCINLSGAGISCRSTRDLYATVIHDIQEEEMENDQTPPDGFLSNSDSPELINMTGHCMPPNALDSFSHDFTSLSKDELLYKPDSNEFAVGTKNYSVSAGDPPVTVMSLVETVPNTPQISPAMAKKINDDIKYQLAKEVRRAGANYERIFILLEEVQGSMKVKRQFVEFTIKEAAAAAKVVLIQQLEKALKEIDSHCHLRKVKHMRKR
notes: Derived from the WT SAGE1 plasmid by site-directed mutagenesis; also called mutant SAGE1; Mutant SAGE1
For B3, in the data set with His-INTS3-Strep [3], the binding result is reported as “no binding”.

B4: SAGE1ΔI3BD (deletion mutant of SAGE1 lacking the I3BD domain) (other)
chain: MQASPLQTSQPTPPEELHAAAYVFTNDGQQMRSDEVNLVATGHQSKKKHSRKSKRHSSSKRRKSMSSWLDKQEDAAVTHSICEERINNGQPVADNVLSTAPPWPDATIAHNIREERMENGQSRTDKVLSTAPPQLVHMAAAGIPSMSTRDLHSTVTHNIREERMENGQPQPDNVLSTGPTGLINMAATPIPAMSARDLYATVTHNVCEQKMENVQPAPDNVLLTLRPRRINMTDTGISPMSTRDPYATITYNVPEEKMEKGQPQPDNILSTASTGLINVAGAGTPAISTNGLYSTVPHNVCEEKMENDQPQPNNVLSTVQPVIIYLTATGIPGMNTRDQYATITHNVCEERVVNNQPLPSNALSTVLPGLAYLATADMPAMSTRDQHATIIHNLREEKKDNSQPTPDNVLSAVTPELINLAGAGIPPMSTRDQYATVNHHVHEARMENGQRKQDNVLSNVLSGLINMAGASIPAMSSRDLYATITHSVREEKMESGKPQTDKVISNDAPQLGHMAAGGIPSMSTKDLYATVTQNVHEERMENNQPQPSYDLSTVLPGLTYLTVAGIPAMSTRDQYATVTHNVHEEKIKNGQAASDNVFSTVPPAFINMAATGVSSMSTRDQYAAVTHNIREEKINNSQPAPGNILSTAPPWLRHMAAAGISSTITRDLYVTATHSVHEEKMTNGQQAPDNSLSTVPPGCINLSGAGISCRSTRDLYATVIHDIQEEEMENDQTPPDGFLSNSDSPELINMTGHCMPPNALDSFSHDFTSLSKDELLYKPDSNEFAVGTKNYSVSAGDPPVTVMSLVETVPNTPQISP
notes: also called SAGE1DI3BD
On to B4, for which the binding result in the data set with His-INTS3-Strep [3] is “no binding”.

With B5, in data set [4], the binding result is “binds”.

B6: SAGE1I3BD (INTS3-binding domain of SAGE1, residues 818-904) (other)
chain: AMAKKINDDIKYQLMKEVRRFGQNYERIFILLEEVQGSMKVKRQFVEFTIKEAARFKKVVLIQQLEKALKEIDSHCHLRKVKHMRKR
notes: Expressed in E. coli with a His-SUMO or GST tag; also called SAGE1818-904; small C-terminal region of SAGE1
As usually defined, the Kd is the concentration at which binding is half-saturated. Read a high Kd as a looser complex. Molecule B6 showed a Kd in data set [5] of roughly 39 nM.

These data come from patent publication US20230031980A1 (SHANGHAI NINTH PEOPLE S HOSPITAL SHANGHAI JIAO TONG …, published 2023).
